Measured values reported in patent US20240376222A1 (University of Texas, published 2024).

Tests used:
[1] = biological target: T1, human TfR extracellular domain (ECD) (human, UniProt P02786 89-760); experiment: phage ELISA, scFv phage on coated TfR, anti-M13-HRP, single point
T1 construct: extracellular domain; Bought protein; also called HuTfR; huTfR

[2] = biological target: T2, muTfR extracellular domain (ECD), His-tagged (mouse, UniProt Q62351 89-763); experiment: BLI, biotinylated VEGFA on streptavidin sensors, no antibody, then muTfR ECD
T2 construct: extracellular domain; Bought protein (Sino Biological); also called muTfR-His; muTfR ECD
Procedure: To characterize the bispecific antibodies a BLI-based sandwich capture assay. The bispecific antibodies were first captured onto sensors via VEGF165A. After equilibrium in blank buffer, the sensor-captured bispecific antibodies were then incubated with muTfR ECD. The VEGF-Trap/TfR bispecific antibodies were shown simultaneously binding to both VEGF165 and TfR. To further validate the antigen binding, we introduced another three control groups that missed one of the three binding partners (VEGFA, Ab, or TfR). […] Finally, the flat curves without TfR confirmed the observed binding signals in curves A and E were antibodies binding to TfR.
Streptavidin sensors (Fortebio) were used to capture biotinylated VEGFA proteins (Sino Biological). During all incubation steps, samples were kept at room temperature with 1000 rpm shaking. In the VEGFA loading step, 100 nM biotinylated VEGFA proteins were incubated with the sensors for the designated time. In the bispecific antibody interaction steps, 200 nM antibodies were used. In the muTfR incubation step, 100 nM muTfR-His (Sino Biological) were used. Between incubations, the sensors were dipped into blank kinetic buffers to allow the free dissociation of proteins.

[3] = biological target: T2, muTfR extracellular domain (ECD), …; experiment: competition ELISA on coated muTfR-His against 1 nM biotinylated Ab4, streptavidin-HRP
Procedure: High-binding ELISA plates (Corning) were coated with muTfR-His at 2 μg/mL overnight at 4° C. After blocking with 1% BSA PBS, individual antibodies (at designated concentrations) and 1 nM biotinylated TfR Ab4 in 1% BSA PBS were incubated with coated muTfR for 2 hours at room temperature. After washing with PBS+0.05% Tween-20, streptavidin-HRP (Jackson ImmunoResearch) was added at 1:5000 concentration and incubated for 1 hour at room temperature. After washing with PBS+0.05% Tween-20, TMB substrate (Thermo Fisher Scientific) was added and incubated for 5 min before being stopped by 1N H₂SO₄. OD values were read at 450 nm.

T2 sequence (Q62351 89-763): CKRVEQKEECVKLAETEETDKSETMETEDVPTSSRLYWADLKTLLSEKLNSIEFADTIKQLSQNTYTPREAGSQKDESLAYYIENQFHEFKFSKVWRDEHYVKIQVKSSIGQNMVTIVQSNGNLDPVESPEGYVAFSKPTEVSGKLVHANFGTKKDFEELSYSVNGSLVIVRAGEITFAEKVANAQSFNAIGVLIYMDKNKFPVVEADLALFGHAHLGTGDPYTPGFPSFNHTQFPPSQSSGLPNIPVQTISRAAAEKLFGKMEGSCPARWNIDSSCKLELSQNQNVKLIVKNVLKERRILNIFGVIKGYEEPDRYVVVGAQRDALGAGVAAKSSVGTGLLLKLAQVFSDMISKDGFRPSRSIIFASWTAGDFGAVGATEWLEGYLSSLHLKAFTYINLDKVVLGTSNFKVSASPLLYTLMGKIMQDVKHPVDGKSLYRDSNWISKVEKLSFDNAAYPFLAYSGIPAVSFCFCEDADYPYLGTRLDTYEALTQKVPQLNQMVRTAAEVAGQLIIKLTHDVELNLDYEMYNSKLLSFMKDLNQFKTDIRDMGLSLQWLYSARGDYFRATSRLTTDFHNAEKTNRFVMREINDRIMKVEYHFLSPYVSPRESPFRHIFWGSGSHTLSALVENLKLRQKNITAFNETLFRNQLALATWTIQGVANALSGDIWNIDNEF
T1 sequence (P02786 89-760): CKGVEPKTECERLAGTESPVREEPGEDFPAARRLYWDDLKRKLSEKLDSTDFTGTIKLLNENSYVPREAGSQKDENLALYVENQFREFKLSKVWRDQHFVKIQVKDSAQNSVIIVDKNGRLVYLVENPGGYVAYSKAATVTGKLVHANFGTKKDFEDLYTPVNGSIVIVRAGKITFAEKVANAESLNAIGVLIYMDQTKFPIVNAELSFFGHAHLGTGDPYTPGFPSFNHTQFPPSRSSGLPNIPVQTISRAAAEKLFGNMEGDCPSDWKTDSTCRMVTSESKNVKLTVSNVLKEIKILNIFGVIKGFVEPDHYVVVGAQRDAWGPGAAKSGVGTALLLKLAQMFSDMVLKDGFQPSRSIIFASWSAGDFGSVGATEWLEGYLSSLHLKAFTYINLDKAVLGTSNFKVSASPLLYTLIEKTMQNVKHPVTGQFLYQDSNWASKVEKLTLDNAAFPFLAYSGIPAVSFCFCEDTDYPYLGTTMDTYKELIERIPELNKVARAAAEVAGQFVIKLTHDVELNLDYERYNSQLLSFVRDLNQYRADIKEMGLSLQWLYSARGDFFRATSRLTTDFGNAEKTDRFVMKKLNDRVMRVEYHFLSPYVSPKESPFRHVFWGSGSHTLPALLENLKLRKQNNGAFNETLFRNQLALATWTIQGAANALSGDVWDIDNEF

B1: 3H8 (antibody, V domains shown)
VH: QVQLVQSGAEVKKPGESLRISCKGSGYSFTSYWISWVRQMPGKGLEWMGRIDPSDSYTNYSPSFQGHVTISADKSISTAYLQWSSLKASDTAMYYCARHPPRSTRGDYGMDVWGQGTMVTVSS
VL: QAVVTQPPSVSGTPGQRVTISCSGSNSNIGSYIVNWYQQLPGTAPKLLIWGNDRRPSGVPDRVSASKSGTSASLAISGLQSEDEGDYYCAAWDNILNNYVFGPGTQLTVL
notes: Human IgG1, converted from a phage scFv clone
B1: binds [1].

B2: VEGFA (VEGF165) (ligand, human, UniProt P15692-4 27-191, looked up)
chain: APMAEGGGQNHHEVVKFMDVYQRSYCHPIETLVDIFQEYPDEIEYIFKPSCVPLMRCGGCCNDEGLECVPTEESNITMQIMRIKPHQGQHIGEMSFLQHNKCECRPKKDRARQENPCGPCSERRKHLFVQDPQTCKCSCKNTDSRCKARQLELNERTCRCDKPRR
notes: also called VEGF165A; human VEGFA
B2: no binding (tested: 100 nM muTfR-His) [2].

B3: VEGF-Trap (Fc fusion, UniProt P17948 129-230, looked up)
chain: SDTGRPFVEMYSEIPEIIHMTEGRELVIPCRVTSPNITVTLKKFPLDTLIPDGKRIIWDSRKGFIISNATYKEIGLLTCEATVNGHLYKTNYLTHRQTNTIIDVVLSPSHGIELSVGEKLVLNCTARTELNVGIDFNWEYPSSKHQHKKLVNRDLKTQSGSEMKKFLSTLTIDGVTRSDQGLYTCAASSGLMTKKNSTFVRVHEK
notes: domain: D2 domain;domain: D3 domain; Designed on aflibercept; also called VEGF-Trap positive control; not shown: human Fc fragment
B3: no binding [3].
